Results reported in patent US20100015126A1, “Methods of Binding of Cross-Beta Structures By Chaperones” (priority 2006, published 2010).

Experiments:
[1] = target: Dapper homolog 1 (hDPR1) (human) (UniProt Q9NYF0); experiment: BiP-Sepharose pull-down, RA patient III serum (B4), MS of urea eluate; may be indirect
[2] = target: CD5 antigen-like precursor (SP-alpha, CT-2, IgM-associated peptide)/CD5 molecule-like (human) (UniProt O43866); experiment: as above
[3] = target: Hypothetical protein DKFZp686I04196 (Fragment)/Immunoglobulin heavy constant gamma 2 (G2m marker)/Ig gamma-2 chain C region (human) [IgG part: P01859]; experiment: as above
Chain of Hypothetical protein DKFZp686I04196 (Fragment)/Immunoglobulin heavy constant gamma 2 (G2m marker)/Ig gamma-2 chain C region (human) [IgG part: P01859] (P01859 other isoform, or with tags, fused parts or gaps limits assumed): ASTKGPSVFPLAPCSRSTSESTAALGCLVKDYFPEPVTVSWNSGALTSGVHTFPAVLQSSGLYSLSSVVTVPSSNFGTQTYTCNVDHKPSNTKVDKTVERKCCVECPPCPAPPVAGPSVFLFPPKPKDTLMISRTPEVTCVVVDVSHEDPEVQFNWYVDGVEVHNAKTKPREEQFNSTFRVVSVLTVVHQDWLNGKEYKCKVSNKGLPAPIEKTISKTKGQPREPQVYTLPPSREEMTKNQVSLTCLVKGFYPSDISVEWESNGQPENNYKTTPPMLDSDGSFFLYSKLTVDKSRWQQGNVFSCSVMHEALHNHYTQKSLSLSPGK

[4] = target: V1-3 protein (Fragment)/immunoglobulin lambda variable 2-11 (human) (UniProt P01706); experiment: as above
Chain of V1-3 protein (Fragment)/immunoglobulin lambda variable 2-11 (human) (P01706 20-119 limits assumed): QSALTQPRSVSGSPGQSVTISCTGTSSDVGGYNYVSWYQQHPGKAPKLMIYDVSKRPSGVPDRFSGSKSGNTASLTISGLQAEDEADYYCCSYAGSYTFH

[5] = target: Complement component 4 binding protein, alpha, C4b-binding protein alpha chain precursor (C4bp) (human) (UniProt P04003); experiment: as above
[6] = target: Alpha-1-antitrypsin precursor/Serpin peptidase inhibitor, clade A, member 1 (human) (UniProt P01009); experiment: as above
[7] = target: Isoform 1 of Plectin-1 (human) (UniProt Q15149); experiment: as above
[8] = target: 187 kDa protein/Complement component 3 (human) (UniProt P01024); experiment: as above
Chain of 187 kDa protein/Complement component 3 (human) (P01024 23-1663 limits assumed): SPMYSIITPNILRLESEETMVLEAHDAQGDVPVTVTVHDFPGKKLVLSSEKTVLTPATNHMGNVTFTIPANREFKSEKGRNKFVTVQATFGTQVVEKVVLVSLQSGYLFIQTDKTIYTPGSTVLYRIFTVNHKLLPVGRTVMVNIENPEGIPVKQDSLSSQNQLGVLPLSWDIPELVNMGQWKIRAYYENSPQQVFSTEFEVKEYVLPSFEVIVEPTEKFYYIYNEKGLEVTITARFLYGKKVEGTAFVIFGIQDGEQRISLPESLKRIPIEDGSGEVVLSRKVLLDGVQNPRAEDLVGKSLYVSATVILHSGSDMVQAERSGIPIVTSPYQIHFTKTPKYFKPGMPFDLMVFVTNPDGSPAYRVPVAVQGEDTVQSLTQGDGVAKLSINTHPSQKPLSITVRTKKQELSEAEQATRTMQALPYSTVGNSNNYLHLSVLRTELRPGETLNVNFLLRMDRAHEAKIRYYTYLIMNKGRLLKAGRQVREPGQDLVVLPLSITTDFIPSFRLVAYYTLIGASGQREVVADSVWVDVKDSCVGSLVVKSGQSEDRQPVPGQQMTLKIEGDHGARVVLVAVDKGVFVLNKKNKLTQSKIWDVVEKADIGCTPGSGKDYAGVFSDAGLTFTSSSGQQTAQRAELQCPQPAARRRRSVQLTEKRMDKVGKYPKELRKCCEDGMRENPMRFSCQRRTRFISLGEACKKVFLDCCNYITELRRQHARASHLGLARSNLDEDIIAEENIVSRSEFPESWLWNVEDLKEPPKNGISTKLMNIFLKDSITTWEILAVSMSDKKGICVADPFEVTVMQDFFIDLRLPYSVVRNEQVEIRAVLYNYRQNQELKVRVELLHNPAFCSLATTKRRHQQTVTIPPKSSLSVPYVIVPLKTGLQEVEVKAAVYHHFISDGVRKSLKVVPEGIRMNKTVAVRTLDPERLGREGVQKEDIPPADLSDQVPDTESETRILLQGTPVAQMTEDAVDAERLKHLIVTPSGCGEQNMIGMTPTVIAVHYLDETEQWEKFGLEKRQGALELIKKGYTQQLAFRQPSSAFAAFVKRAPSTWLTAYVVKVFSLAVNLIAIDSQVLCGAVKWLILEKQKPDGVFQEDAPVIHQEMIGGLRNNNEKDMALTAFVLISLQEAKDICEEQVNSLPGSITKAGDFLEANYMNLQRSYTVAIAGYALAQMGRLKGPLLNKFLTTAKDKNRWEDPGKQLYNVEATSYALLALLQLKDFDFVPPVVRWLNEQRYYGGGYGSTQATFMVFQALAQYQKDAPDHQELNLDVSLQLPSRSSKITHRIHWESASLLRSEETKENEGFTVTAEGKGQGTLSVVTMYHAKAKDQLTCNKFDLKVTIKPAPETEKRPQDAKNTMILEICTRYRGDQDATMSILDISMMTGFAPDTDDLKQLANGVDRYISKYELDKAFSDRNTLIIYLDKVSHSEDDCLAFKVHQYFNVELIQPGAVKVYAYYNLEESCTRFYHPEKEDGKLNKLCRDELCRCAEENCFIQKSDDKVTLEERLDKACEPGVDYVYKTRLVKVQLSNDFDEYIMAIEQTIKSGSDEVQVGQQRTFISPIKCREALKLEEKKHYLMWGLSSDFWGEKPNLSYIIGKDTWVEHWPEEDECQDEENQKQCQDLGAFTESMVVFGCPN

[9] = target: Hypothetical protein/Heat shock 70 kDa protein 5 (glucose-regulated protein, 78 kDa = GRP78 = BiP = HSPA5), as identified in eluates (human) (UniProt P11021); experiment: BiP-Sepharose pull-down, RA synovial fluid sample 2B, 1 M NaCl eluate, MS; BiP may stem from the column
Chain of Hypothetical protein/Heat shock 70 kDa protein 5 (glucose-regulated protein, 78 kDa = GRP78 = BiP = HSPA5), as identified in eluates (human) (P11021 19-654 limits assumed): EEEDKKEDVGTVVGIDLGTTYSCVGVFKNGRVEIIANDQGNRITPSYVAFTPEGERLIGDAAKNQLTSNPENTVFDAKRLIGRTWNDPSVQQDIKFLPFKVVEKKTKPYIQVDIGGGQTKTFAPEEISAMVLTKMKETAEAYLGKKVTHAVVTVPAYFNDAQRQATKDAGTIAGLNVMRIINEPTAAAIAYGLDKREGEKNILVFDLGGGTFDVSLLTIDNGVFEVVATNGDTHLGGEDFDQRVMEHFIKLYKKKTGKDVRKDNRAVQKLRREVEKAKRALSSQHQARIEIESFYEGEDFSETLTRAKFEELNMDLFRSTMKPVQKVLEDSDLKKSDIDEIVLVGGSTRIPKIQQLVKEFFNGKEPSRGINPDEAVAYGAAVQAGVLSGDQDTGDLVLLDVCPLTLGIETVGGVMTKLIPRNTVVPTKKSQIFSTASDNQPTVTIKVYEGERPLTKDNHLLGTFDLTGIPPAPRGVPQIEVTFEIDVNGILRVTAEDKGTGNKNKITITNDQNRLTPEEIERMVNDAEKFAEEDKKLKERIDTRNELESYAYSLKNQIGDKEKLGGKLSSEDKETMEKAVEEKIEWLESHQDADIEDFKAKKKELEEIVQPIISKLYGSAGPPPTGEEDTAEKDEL

[10] = target: Isoform H17 of Myeloperoxidase precursor (human) (UniProt P05164); experiment: BiP-Sepharose pull-down, RA synovial fluid sample 4B, 1 M NaCl eluate, MS; may be indirect
[11] = target: IGHM protein, coagulation factor VII (serum prothrombin conversion accelerator) (human) (UniProt P08709); experiment: as above
[12] = target: Heat shock 70 kDa protein 1L (human) (UniProt P34931); experiment: BiP-Sepharose pull-down, RA synovial fluid sample 6B, 1 M NaCl eluate, MS; may be indirect
Chain of Heat shock 70 kDa protein 1L (human) (P34931 whole entry): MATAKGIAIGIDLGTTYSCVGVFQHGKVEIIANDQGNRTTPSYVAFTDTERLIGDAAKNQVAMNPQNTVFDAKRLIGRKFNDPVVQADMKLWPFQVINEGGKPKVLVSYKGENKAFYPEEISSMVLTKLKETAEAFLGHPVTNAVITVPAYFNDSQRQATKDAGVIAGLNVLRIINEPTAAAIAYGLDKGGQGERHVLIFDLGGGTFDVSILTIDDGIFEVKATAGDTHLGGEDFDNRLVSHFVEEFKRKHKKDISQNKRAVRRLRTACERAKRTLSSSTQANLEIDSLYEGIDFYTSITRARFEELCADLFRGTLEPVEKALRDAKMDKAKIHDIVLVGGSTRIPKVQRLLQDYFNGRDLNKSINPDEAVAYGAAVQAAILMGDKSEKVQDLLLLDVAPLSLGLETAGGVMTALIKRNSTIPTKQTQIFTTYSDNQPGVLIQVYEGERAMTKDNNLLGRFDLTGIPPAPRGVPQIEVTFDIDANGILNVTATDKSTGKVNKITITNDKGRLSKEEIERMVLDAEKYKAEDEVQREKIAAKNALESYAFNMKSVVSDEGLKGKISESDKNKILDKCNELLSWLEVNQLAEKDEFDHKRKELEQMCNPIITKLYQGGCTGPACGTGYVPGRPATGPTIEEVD

[13] = target: Vitronectin precursor (Serum-spreading factor/S-protein) (human) (UniProt P04004); experiment: as above
Chain of Vitronectin precursor (Serum-spreading factor/S-protein) (human) (P04004 20-478 limits assumed): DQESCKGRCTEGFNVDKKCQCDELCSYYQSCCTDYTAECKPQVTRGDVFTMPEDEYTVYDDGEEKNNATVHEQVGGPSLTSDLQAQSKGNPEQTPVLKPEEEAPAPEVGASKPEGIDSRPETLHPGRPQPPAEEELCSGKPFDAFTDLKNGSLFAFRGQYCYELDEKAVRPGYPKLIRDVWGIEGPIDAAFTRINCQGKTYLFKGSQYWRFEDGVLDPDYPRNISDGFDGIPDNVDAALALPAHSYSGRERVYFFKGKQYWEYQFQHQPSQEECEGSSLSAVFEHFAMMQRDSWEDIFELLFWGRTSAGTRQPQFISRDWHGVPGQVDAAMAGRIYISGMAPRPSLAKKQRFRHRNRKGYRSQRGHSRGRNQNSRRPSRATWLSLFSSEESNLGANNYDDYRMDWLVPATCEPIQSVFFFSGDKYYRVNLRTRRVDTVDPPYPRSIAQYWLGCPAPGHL

[14] = target: Hypothetical protein/Heat shock 70 kDa protein 5 (glucose-regulated protein, 78 kDa = GRP78 = BiP = HSPA5), as identified in eluates (human) (UniProt P11021); experiment: BiP-Sepharose pull-down, RA synovial fluid sample 3B, 1 M NaCl eluate, MS; BiP may stem from the column
Histone H3.2 (human) = Histone H3.2 (human) (UniProt Q71DI3); experiment: BiP-Sepharose pull-down, RA synovial fluid sample 3B, 1 M NaCl eluate, MS; may be indirect
[15] = target: Isoform H17 of Myeloperoxidase precursor (human) (UniProt P05164); experiment: as above
[16] = target: Haptoglobin precursor (human) (UniProt P00738); experiment: as above
Chain of Haptoglobin precursor (human) (P00738 19-406 limits assumed): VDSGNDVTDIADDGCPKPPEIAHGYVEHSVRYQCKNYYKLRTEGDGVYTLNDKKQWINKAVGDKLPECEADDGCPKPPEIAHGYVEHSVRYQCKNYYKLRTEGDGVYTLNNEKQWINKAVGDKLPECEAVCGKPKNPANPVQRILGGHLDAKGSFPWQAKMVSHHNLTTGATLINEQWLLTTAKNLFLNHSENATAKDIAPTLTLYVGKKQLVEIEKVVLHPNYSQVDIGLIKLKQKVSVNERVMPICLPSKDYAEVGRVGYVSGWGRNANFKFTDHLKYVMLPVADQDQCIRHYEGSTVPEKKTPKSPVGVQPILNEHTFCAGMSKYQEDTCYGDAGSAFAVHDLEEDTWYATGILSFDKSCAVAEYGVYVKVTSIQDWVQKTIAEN

[17] = target: IGKV1-5 protein, immunoglobulin kappa variable 1-5 (human) (UniProt P01602); experiment: as above
Chain of IGKV1-5 protein, immunoglobulin kappa variable 1-5 (human) (P01602 23-117 limits assumed): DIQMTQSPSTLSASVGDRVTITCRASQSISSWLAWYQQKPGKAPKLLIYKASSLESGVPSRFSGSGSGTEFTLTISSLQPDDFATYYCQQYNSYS

[18] = target: Ig kappa chain V-IV region Len, immunoglobulin kappa variable 4-1 (human) (UniProt P06312); experiment: as above
[19] = target: Isoform A of Proteoglycan-4 precursor (human) (UniProt Q92954); experiment: as above
[20] = target: Clusterin precursor (human) (UniProt P10909); experiment: as above
[21] = target: 25 kDa protein/immunoglobulin lambda chain/rheumatoid factor G9 light chain (lambda V3)/IGLC1 protein (human) (UniProt P0CG04); experiment: as above
[22] = target: Neutrophil defensin 1 precursor (human) (UniProt P59665); experiment: as above
Chain of Neutrophil defensin 1 precursor (human) (P59665 65-94 limits assumed): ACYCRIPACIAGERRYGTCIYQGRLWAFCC

[23] = target: IGHM protein, immunoglobulin heavy chain mu (heavy chain disease protein) (human) (UniProt P01871); experiment: as above
[24] = target: Apolipoprotein A-I precursor (human) (UniProt P02647); experiment: as above
[25] = target: Galectin-3-binding protein precursor (human) (UniProt Q08380); experiment: as above
[26] = target: FLJ00385 protein (Fragment), immunoglobulin heavy constant mu (human) (UniProt P01871); experiment: as above
[27] = target: Heat shock 70 kDa protein 1L (human) (UniProt P34931); experiment: as above
[28] = target: Hypothetical protein/Heat shock 70 kDa protein 5 (glucose-regulated protein, 78 kDa = GRP78 = BiP = HSPA5), as identified in eluates (human) (UniProt P11021); experiment: BiP-Sepharose pull-down, RA synovial fluid sample 5B, 1 M NaCl eluate, MS; BiP may stem from the column

Chain of recombinant human BiP with C-terminal linker, FLAG-tag and His-tag (BiP-FLAG-His) (P11021 other isoform, or with tags, fused parts or gaps): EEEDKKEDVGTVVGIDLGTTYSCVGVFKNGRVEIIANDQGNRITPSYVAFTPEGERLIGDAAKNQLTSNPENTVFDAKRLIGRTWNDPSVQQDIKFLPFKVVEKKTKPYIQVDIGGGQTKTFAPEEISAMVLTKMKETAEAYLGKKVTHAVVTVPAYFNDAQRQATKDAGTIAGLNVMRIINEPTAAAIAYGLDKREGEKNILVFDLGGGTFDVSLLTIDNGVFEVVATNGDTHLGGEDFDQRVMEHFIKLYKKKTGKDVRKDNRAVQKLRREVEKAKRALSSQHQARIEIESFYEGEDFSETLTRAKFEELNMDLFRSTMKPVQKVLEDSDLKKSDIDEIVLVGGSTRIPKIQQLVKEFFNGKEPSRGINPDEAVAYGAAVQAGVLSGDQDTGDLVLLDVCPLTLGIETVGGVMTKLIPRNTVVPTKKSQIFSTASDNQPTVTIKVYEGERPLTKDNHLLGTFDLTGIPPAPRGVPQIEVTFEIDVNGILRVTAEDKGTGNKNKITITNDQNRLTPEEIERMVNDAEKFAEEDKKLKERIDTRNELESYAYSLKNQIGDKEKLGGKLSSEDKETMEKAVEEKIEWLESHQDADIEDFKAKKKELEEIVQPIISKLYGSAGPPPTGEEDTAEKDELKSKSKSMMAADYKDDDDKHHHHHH

recombinant human BiP with C-terminal linker, FLAG-tag and His-tag (BiP-FLAG-His) (from UniProt P11021 19-654)
# of peptides [1]: 2 peptides | # of peptides [2]: 1 peptides | # of peptides [3]: 14 peptides | # of peptides [4]: 1 peptides | # of peptides [5]: 7 peptides | # of peptides [6]: 1 peptides | # of peptides [7]: 2 peptides | # of peptides [8]: 9 peptides | # of unique peptides [9]: 12 peptides | # of unique peptides [10]: 1 peptides | # of unique peptides [11]: 1 peptides | # of unique peptides [12]: 1 peptides | # of unique peptides [13]: 1 peptides | # of unique peptides [14]: 19 peptides | # of unique peptides (Histone H3.2 (human)): 1 peptides | # of unique peptides [15]: 1 peptides | # of unique peptides [16]: 3 peptides | # of unique peptides [17]: 5 peptides | # of unique peptides [18]: 1 peptides | # of unique peptides [19]: 2 peptides | # of unique peptides [20]: 1 peptides | # of unique peptides [21]: 1 peptides | # of unique peptides [22]: 1 peptides | # of unique peptides [23]: 1 peptides | # of unique peptides [24]: 8 peptides | # of unique peptides [25]: 1 peptides | # of unique peptides [26]: 2 peptides | # of unique peptides [27]: 1 peptides | # of unique peptides [28]: 10 peptides
